Laboratory results reported in the supplement of paper PMC10567573.

B1: SETD8 (parent)
chain: FVVEYHGDLIEITDAKKREALYAQ

Variants of: B1
Test: protein stability index of a GFP-peptide fusion (GPS, HEK-293T) (PSI 1-6); higher = more stable
Conditions: c terminus: a fixed tail appended
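Also: lentivirally expressed fusions sorted by FACS into six bins by GFP to DsRed ratio, PSI derived from sequencing read proportions per bin multiplied by bin number.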

Variant	protein stability index
FVVEYHKDLIEITDAKKREALYAQ [G7K]	1.66
FVVEYHTDLIEITDAKKREALYAQ [G7T]	1.94
FVVEYHDDLIEITDAKKREALYAQ [G7D]	2.33
FVVEYHRDLIEITDAKKREALYAQ [G7R]	2.76
FVVEYHADLIEITDAKKREALYAQ [G7A]	1.56
FVVEYHSDLIEITDAKKREALYAQ [G7S]	1.89
FVVEYHNDLIEITDAKKREALYAQ [G7N]	2.34
FVVEYHQDLIEITDAKKREALYAQ [G7Q]	1.83
FVVEYHVDLIEITDAKKREALYAQ [G7V]	1.11
FVVEYHFDLIEITDAKKREALYAQ [G7F]	2.87
FVVEYHIDLIEITDAKKREALYAQ [G7I]	3.15
FVVEYHCDLIEITDAKKREALYAQ [G7C]	1.76
FVVEYHMDLIEITDAKKREALYAQ [G7M]	1.08
FVVEYHHDLIEITDAKKREALYAQ [G7H]	2.08
FVVEYHEDLIEITDAKKREALYAQ [G7E]	2.33
FVVEYHPDLIEITDAKKREALYAQ [G7P]	2.65
FVVEYHGDLIKITDAKKREALYAQ [E11K]	2.1
FVVEYHGDLINITDAKKREALYAQ [E11N]	2.04
FVVEYHGDLIRITDAKKREALYAQ [E11R]	1.37
FVVEYHGDLIQITDAKKREALYAQ [E11Q]	2.51
FVVEYHGDLIMITDAKKREALYAQ [E11M]	2.49
FVVEYHGDLIYITDAKKREALYAQ [E11Y]	2.56
FVVEYHGDLILITDAKKREALYAQ [E11L]	3.14
FVVEYHGDLIFITDAKKREALYAQ [E11F]	2.92

Variant	protein stability index
FVVEYHGDLITITDAKKREALYAQ [E11T]	2.43
FVVEYHGDLIVITDAKKREALYAQ [E11V]	1.96
FVVEYHGDLICITDAKKREALYAQ [E11C]	3.07
FVVEYHGDLIPITDAKKREALYAQ [E11P]	2.62
FVVEYHGDLIAITDAKKREALYAQ [E11A]	1.14
FVVEYHGDLISITDAKKREALYAQ [E11S]	2.25
FVVEYHGDLIDITDAKKREALYAQ [E11D]	2.36
FVVEYHGDLIHITDAKKREALYAQ [E11H]	2.25
FVVEYHGDLGEITDAKKREALYAQ [I10G]	2.11
FVVEYHGDLSEITDAKKREALYAQ [I10S]	2.21
FVVEYHGDLFEITDAKKREALYAQ [I10F]	2.1
FVVEYHGDLDEITDAKKREALYAQ [I10D]	2.58
FVVEYHGDLHEITDAKKREALYAQ [I10H]	1.64
FVVEYHGDLKEITDAKKREALYAQ [I10K]	2.28
FVVEYHGDLYEITDAKKREALYAQ [I10Y]	1.61
FVVEYHGDLWEITDAKKREALYAQ [I10W]	1.21
FVVEYHGDLAEITDAKKREALYAQ [I10A]	2.08
FVVEYHGDLEEITDAKKREALYAQ [I10E]	2.21
FVVEYHGDLNEITDAKKREALYAQ [I10N]	1.88
FVVEYHGDLMEITDAKKREALYAQ [I10M]	1.67
FVVEYHGDLLEITDAKKREALYAQ [I10L]	2.17
FVVEYHGDLVEITDAKKREALYAQ [I10V]	1.56
FVVEYHGDLTEITDAKKREALYAQ [I10T]	2.01
FVVEYHGDLCEITDAKKREALYAQ [I10C]	1.99

Variant	protein stability index
FVVEYHGDLREITDAKKREALYAQ [I10R]	1.82
FVVEYHGDLQEITDAKKREALYAQ [I10Q]	2.5
FVVEYHGDLPEITDAKKREALYAQ [I10P]	2.25
FVVEYHGDLIEITDDKKREALYAQ [A15D]	1.82
FVVEYHGDLIEITDLKKREALYAQ [A15L]	1.93
FVVEYHGDLIEITDFKKREALYAQ [A15F]	2.25
FVVEYHGDLIEITDGKKREALYAQ [A15G]	2.23
FVVEYHGDLIEITDYKKREALYAQ [A15Y]	1.13
FVVEYHGDLIEITDIKKREALYAQ [A15I]	2.04
FVVEYHGDLIEITDQKKREALYAQ [A15Q]	2.22
FVVEYHGDLIEITDHKKREALYAQ [A15H]	1.87
FVVEYHGDLIEITDCKKREALYAQ [A15C]	1.67
FVVEYHGDLIEITDSKKREALYAQ [A15S]	1.88
FVVEYHGDLIEITDWKKREALYAQ [A15W]	2.37
FVVEYHGDLIEITDKKKREALYAQ [A15K]	2.33
FVVEYHGDLIEITDPKKREALYAQ [A15P]	2.73
FVVEYHGDLIEITDNKKREALYAQ [A15N]	1.43
FVVEYHGDLIEITDVKKREALYAQ [A15V]	2.3
FVVEYHGDLIEITDMKKREALYAQ [A15M]	2.69
FVVEYHGDLIEITDEKKREALYAQ [A15E]	2.08
FVVEYHGDLIEITDTKKREALYAQ [A15T]	1.51
FVVEYHGDLIEITDRKKREALYAQ [A15R]	3.06
FVVEYHGDLIEINDAKKREALYAQ [T13N]	1.96
FVVEYHGDLIEIYDAKKREALYAQ [T13Y]	1.78

Variant	protein stability index
FVVEYHGDLIEICDAKKREALYAQ [T13C]	2.42
FVVEYHGDLIEIPDAKKREALYAQ [T13P]	2.65
FVVEYHGDLIEISDAKKREALYAQ [T13S]	2.46
FVVEYHGDLIEIHDAKKREALYAQ [T13H]	2.02
FVVEYHGDLIEIMDAKKREALYAQ [T13M]	1.5
FVVEYHGDLIEIGDAKKREALYAQ [T13G]	1.41
FVVEYHGDLIEIKDAKKREALYAQ [T13K]	2.79
FVVEYHGDLIEIVDAKKREALYAQ [T13V]	3.05
FVVEYHGDLIEIRDAKKREALYAQ [T13R]	2.07
FVVEYHGDLIEIADAKKREALYAQ [T13A]	1.73
FVVEYHGDLIEIEDAKKREALYAQ [T13E]	1.76
FVVEYHGDLIEIIDAKKREALYAQ [T13I]	2.24
FVVEYHGDLIEIQDAKKREALYAQ [T13Q]	3.21
FVVEYHGDLIEIFDAKKREALYAQ [T13F]	3.25
FVVEYHGDLIEILDAKKREALYAQ [T13L]	2.63
FVVEYHGDLIEIDDAKKREALYAQ [T13D]	1.97
FVVEYHGNLIEITDAKKREALYAQ [D8N]	1.7
FVVEYHGFLIEITDAKKREALYAQ [D8F]	2.77
FVVEYHGVLIEITDAKKREALYAQ [D8V]	3.4
FVVEYHGTLIEITDAKKREALYAQ [D8T]	1.45
FVVEYHGALIEITDAKKREALYAQ [D8A]	1.65
FVVEYHGHLIEITDAKKREALYAQ [D8H]	1.56
FVVEYHGYLIEITDAKKREALYAQ [D8Y]	1.84
FVVEYHGCLIEITDAKKREALYAQ [D8C]	2.01

Variant	protein stability index
FVVEYHGSLIEITDAKKREALYAQ [D8S]	2.33
FVVEYHGQLIEITDAKKREALYAQ [D8Q]	1.59
FVVEYHGGLIEITDAKKREALYAQ [D8G]	2.01
FVVEYHGMLIEITDAKKREALYAQ [D8M]	3.28
FVVEYHGLLIEITDAKKREALYAQ [D8L]	2.85
FVVEYHGELIEITDAKKREALYAQ [D8E]	2.15
FVVEYHGPLIEITDAKKREALYAQ [D8P]	1.83
FVVEYHGKLIEITDAKKREALYAQ [D8K]	1.82
FVVEYHGDLIEITDAKCREALYAQ [K17C]	2.17
FVVEYHGDLIEITDAKNREALYAQ [K17N]	2.06
FVVEYHGDLIEITDAKLREALYAQ [K17L]	1.73
FVVEYHGDLIEITDAKFREALYAQ [K17F]	2.17
FVVEYHGDLIEITDAKEREALYAQ [K17E]	2.14
FVVEYHGDLIEITDAKAREALYAQ [K17A]	1.59
FVVEYHGDLIEITDAKHREALYAQ [K17H]	1.61
FVVEYHGDLIEITDAKGREALYAQ [K17G]	1.26
FVVEYHGDLIEITDAKDREALYAQ [K17D]	1.65
FVVEYHGDLIEITDAKMREALYAQ [K17M]	2.46
FVVEYHGDLIEITDAKIREALYAQ [K17I]	1.75
FVVEYHGDLIEITEAKKREALYAQ [D14E]	2.75
FVVEYHGDLIEITAAKKREALYAQ [D14A]	2.08
FVVEYHGDLIEITRAKKREALYAQ [D14R]	1.72
FVVEYHGDLIEITTAKKREALYAQ [D14T]	1.21
FVVEYHGDLIEITIAKKREALYAQ [D14I]	2.69

Variant	protein stability index
FVVEYHGDLIEITCAKKREALYAQ [D14C]	1.46
FVVEYHGDLIEITHAKKREALYAQ [D14H]	1.52
FVVEYHGDLIEITNAKKREALYAQ [D14N]	1.65
FVVEYHGDLIEITWAKKREALYAQ [D14W]	1.31
FVVEYHGDLIEITVAKKREALYAQ [D14V]	1.45
FVVEYHGDLIEITPAKKREALYAQ [D14P]	1.37
FVVEYHGDLIEITFAKKREALYAQ [D14F]	2.45
FVVEYHGDLIEITQAKKREALYAQ [D14Q]	2.13
FVVEYHGDLIEITLAKKREALYAQ [D14L]	1.16
FVVEYHGDLIEITKAKKREALYAQ [D14K]	2.58
FVVEYHGDLIEITMAKKREALYAQ [D14M]	1.95
FVVEYHGDLIEITSAKKREALYAQ [D14S]	1.88
FVVEYHGDLIEITGAKKREALYAQ [D14G]	3.5
FVVEYHGDLIEITDAAKREALYAQ [K16A]	1.7
FVVEYHGDLIEITDACKREALYAQ [K16C]	1
FVVEYHGDLIEITDASKREALYAQ [K16S]	2.59
FVVEYHGDLIEITDAWKREALYAQ [K16W]	3.04
FVVEYHGDLIEITDADKREALYAQ [K16D]	2.05
FVVEYHGDLIEITDAPKREALYAQ [K16P]	1.5
FVVEYHGDLIEITDAGKREALYAQ [K16G]	1.51
FVVEYHGDLIEITDARKREALYAQ [K16R]	2.07
FVVEYHGDLIEITDATKREALYAQ [K16T]	1.28
FVVEYHGDLIEITDAQKREALYAQ [K16Q]	2.48
FVVEYHGDLIEITDAVKREALYAQ [K16V]	1.76

Variant	protein stability index
FVVEYHGDLIEITDAHKREALYAQ [K16H]	2.3
FVVEYHGDLIEITDAMKREALYAQ [K16M]	1.59
FVVEYHGDLIEITDAIKREALYAQ [K16I]	1.78
FVVEYHGDLIEITDAFKREALYAQ [K16F]	2.13
FVVEYHGDLIEITDAEKREALYAQ [K16E]	2.08
FVVEYHGDLIEITDANKREALYAQ [K16N]	1.68
FVVEYHGDNIEITDAKKREALYAQ [L9N]	2.86
FVVEYHGDTIEITDAKKREALYAQ [L9T]	2.06
FVVEYHGDFIEITDAKKREALYAQ [L9F]	3.03
FVVEYHGDRIEITDAKKREALYAQ [L9R]	1.8
FVVEYHGDIIEITDAKKREALYAQ [L9I]	1.59
FVVEYHGDYIEITDAKKREALYAQ [L9Y]	1.68
FVVEYHGDKIEITDAKKREALYAQ [L9K]	2.58
FVVEYHGDPIEITDAKKREALYAQ [L9P]	2.26
FVVEYHGDAIEITDAKKREALYAQ [L9A]	2.31
FVVEYHGDSIEITDAKKREALYAQ [L9S]	1.74
FVVEYHGDGIEITDAKKREALYAQ [L9G]	1.59
FVVEYHGDWIEITDAKKREALYAQ [L9W]	1.47
FVVEYHGDEIEITDAKKREALYAQ [L9E]	2.42
FVVEYHGDMIEITDAKKREALYAQ [L9M]	1.46
FVVEYHGDQIEITDAKKREALYAQ [L9Q]	2.73
FVVEYHGDVIEITDAKKREALYAQ [L9V]	2.47
FVVEYHGDHIEITDAKKREALYAQ [L9H]	1.93
FVVEYHGDCIEITDAKKREALYAQ [L9C]	2.25

Variant	protein stability index
FVVEYHGDDIEITDAKKREALYAQ [L9D]	2.91
FVVEYHGDLIERTDAKKREALYAQ [I12R]	2.48
FVVEYHGDLIEMTDAKKREALYAQ [I12M]	1.72
FVVEYHGDLIEKTDAKKREALYAQ [I12K]	2.75
FVVEYHGDLIEFTDAKKREALYAQ [I12F]	2.21
FVVEYHGDLIECTDAKKREALYAQ [I12C]	2.1
FVVEYHGDLIEQTDAKKREALYAQ [I12Q]	2.77
FVVEYHGDLIELTDAKKREALYAQ [I12L]	2.55
FVVEYHGDLIEETDAKKREALYAQ [I12E]	2.74
FVVEYHGDLIEVTDAKKREALYAQ [I12V]	2.18
FVVEYHGDLIEHTDAKKREALYAQ [I12H]	2.48
FVVEYHGDLIEATDAKKREALYAQ [I12A]	1.98
FVVEYHGDLIEWTDAKKREALYAQ [I12W]	2.45
FVVEYHGDLIESTDAKKREALYAQ [I12S]	2.09
FVVEYHGDLIENTDAKKREALYAQ [I12N]	2.54
FVVEYHGDLIEGTDAKKREALYAQ [I12G]	1.64
FVVEYHGDLIEYTDAKKREALYAQ [I12Y]	1.56
FVVEYHGDLIEDTDAKKREALYAQ [I12D]	2.22
FVVEYHGDLIEPTDAKKREALYAQ [I12P]	2.36
FVVEYHGDLIETTDAKKREALYAQ [I12T]	2.02
